Columns and labels:
[1] = biological target: T1, recombinant His-tagged AGO2 protein (human Argonaute 2, baculovirus-expressed) (human), Q9UKV8
[2] = biological target: T1, recombinant His-tagged AGO2 protein …; assay: TAT-26 peptide
[3] = biological target: T1, recombinant His-tagged AGO2 protein …; assay: TAT-11 peptide

T1 sequence (Q9UKV8 other isoform, or with tags, fused parts or gaps limits assumed): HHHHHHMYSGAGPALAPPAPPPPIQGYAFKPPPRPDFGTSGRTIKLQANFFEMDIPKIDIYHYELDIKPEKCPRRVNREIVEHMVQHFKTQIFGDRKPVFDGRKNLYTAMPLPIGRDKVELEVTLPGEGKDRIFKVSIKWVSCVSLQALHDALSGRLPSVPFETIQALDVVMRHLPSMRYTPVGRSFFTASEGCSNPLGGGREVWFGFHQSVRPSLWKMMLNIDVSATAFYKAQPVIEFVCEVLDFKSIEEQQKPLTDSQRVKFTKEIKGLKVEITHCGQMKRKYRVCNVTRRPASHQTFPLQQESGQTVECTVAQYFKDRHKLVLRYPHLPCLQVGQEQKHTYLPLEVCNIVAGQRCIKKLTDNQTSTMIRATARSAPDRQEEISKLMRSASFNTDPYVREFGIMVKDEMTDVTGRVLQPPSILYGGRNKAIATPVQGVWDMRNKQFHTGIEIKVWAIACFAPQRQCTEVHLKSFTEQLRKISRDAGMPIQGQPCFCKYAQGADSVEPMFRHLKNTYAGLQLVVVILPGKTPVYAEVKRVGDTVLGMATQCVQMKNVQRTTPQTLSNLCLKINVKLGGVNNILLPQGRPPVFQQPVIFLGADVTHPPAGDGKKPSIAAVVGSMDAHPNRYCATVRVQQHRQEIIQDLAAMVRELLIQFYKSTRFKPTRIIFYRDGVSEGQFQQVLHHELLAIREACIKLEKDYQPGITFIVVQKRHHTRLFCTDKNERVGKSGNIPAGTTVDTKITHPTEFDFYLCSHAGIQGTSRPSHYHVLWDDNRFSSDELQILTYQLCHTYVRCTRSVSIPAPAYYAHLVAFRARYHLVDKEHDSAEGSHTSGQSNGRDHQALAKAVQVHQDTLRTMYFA

| Binder | koff [1] | kon [1] | Kd [2] | Kd [3] |
| --- | --- | --- | --- | --- |
| HSLGGPLIATAFTNGGRKKRRQRRRPPQ (modifications not checked) [TAT-26 decoy peptide (MSI1 peptide 26 with HIV-1 Tat (48-60) cell-penetrating peptide)] | 0.00226 s⁻¹ | 488 M⁻¹ s⁻¹ | 4.63 µM | – |
| YQFPEFRVERTPLPSGRKKRRQRRRPPQ (modifications not checked) [TAT-11 decoy peptide (MSI1 peptide 11 with HIV-1 Tat (48-60) cell-penetrating peptide)] | 0.00274 s⁻¹ | 823 M⁻¹ s⁻¹ | – | 3.33 µM |
